The values below come from patent US20180127502A1 (Memorial Sloan Kettering, published 2018).

Sequences and labels used below:
B1: anti-PD-1 scFv-Fc clone 26 (scFv linked to murine Fc) (Fc fusion)
chain: QSVLTQPPSVSVAPGKTARITCGGNNIGSKSVHWYQQKPGQAPVLVIYYDSDRPSGIPERFSGSNSGNTATLTISRVEAGDEADYYCQVWDNHSDVVFGGGTKLTVLGGGGGSGGGGSGGGGSQVQLVESGGGLVQPGGSLRLSCAASGYTRNKFSSYAMSWVRQAPGKGLEWVSGISGSGGTTYYADSVKGRFTISRDNSKNTQYLQLDSLRAEDTAVYYCARWYSSYYDVWGQGTLVTVSS
notes: also called PD1-26; not shown: murine Fc (mouse IgG1a) domain
B2: anti-PD-1 scFv-Fc clone 40 (scFv linked to murine Fc) (Fc fusion)
chain: QSVLTQPPSASGTPGQRVTISCSGSRSNIGENTVNWYQQLPGTAPKLLIYSNNQRPSGVPDRFSGSKSGTSASLAISGLHSDDEADYFCAAWDDRLNGYVFGTGTKVTVLGGGGGSGGGGSGGGGSQVQLVQSGPEVKKPGASVKVSCKASGYTFTNYGFTWVRQAPGQGLEWMGWIGAQKGDTEYAQKFQGRVTMTTDTSTSTVYLELRSLRSDDTAVYYCARSQGVPFDSWGQGTLVTVSS
notes: also called PD-1-40; not shown: murine Fc (mouse IgG1a) domain
B3: anti-PD-1 scFv-Fc clone 23 (scFv linked to murine Fc) (Fc fusion)
chain: QAVLTQPPSMSEAPRQRVTISCSGSSSNIGNNAVNWYQQLPGKAPKLLIYYNDLLSSGVSDRFSGSKSGTSASLAISGLQSEDEADYYCAAWDDSVNGYVFGTGTKVTVLGGSRGGGGSGGGGSGGGGSEVQLVQSGAEVKKPGDSVKVSCKASGYTFTRFGFSWVRQAPGQGLEWMGWISVNNGNTKYAQKYQGRVTMTTDTSTSTAYMELRSLRSDDTAVYYCARYMYGRRDSWGQGTLVTVSS
notes: also called PD1-23; not shown: murine Fc (mouse IgG1a) domain
B4: anti-PD-1 clone 26 monoclonal antibody (antibody, V domains shown)
VH: QVQLVESGGGLVQPGGSLRLSCAASGYTRNKFSSYAMSWVRQAPGKGLEWVSGISGSGGTTYYADSVKGRFTISRDNSKNTQYLQLDSLRAEDTAVYYCARWYSSYYDVWGQGTLVTVSS
VL: QSVLTQPPSVSVAPGKTARITCGGNNIGSKSVHWYQQKPGQAPVLVIYYDSDRPSGIPERFSGSNSGNTATLTISRVEAGDEADYYCQVWDNHSDVVFGGGTKLTVLG
notes: also called Clone 26 mAb; ET130-26
B5: anti-PD-1 clone 27 monoclonal antibody (antibody, V domains shown)
VH: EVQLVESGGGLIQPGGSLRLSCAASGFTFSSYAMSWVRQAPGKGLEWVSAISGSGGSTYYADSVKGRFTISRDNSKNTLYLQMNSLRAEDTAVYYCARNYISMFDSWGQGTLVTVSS
VL: QSVLTQPPSVSVAPGKTARITCGGNNIGSKSVHWYQQRPGQAPVLVIYYDSDRPSGIPERFSGSNSGNTATLTISRVEAGDEADYYCQVWDSSSDYVFGIGTKVTVLG
notes: also called Clone 27 mAb; E27 mAb
B6: anti-PD-1 clone 23 monoclonal antibody (antibody, V domains shown)
VH: EVQLVQSGAEVKKPGDSVKVSCKASGYTFTRFGFSWVRQAPGQGLEWMGWISVNNGNTKYAQKYQGRVTMTTDTSTSTAYMELRSLRSDDTAVYYCARYMYGRRDSWGQGTLVTVSS
VL: QAVLTQPPSMSEAPRQRVTISCSGSSSNIGNNAVNWYQQLPGKAPKLLIYYNDLLSSGVSDRFSGSKSGTSASLAISGLQSEDEADYYCAAWDDSVNGYVFGTGTKVTVLG
notes: also called Clone 23 mAb; ET130-23

The target in the first test is human PD-1 monomer (human, UniProt Q15116 25-167, limits assumed). As to the kind of experiment: ELISA on PD-1 monomer (FIG. 1). An excerpt: ET901 ScFv-Fc (mouse IgG1 Fc) served as the negative control.
human PD-1 monomer, sequence (Q15116 25-167 limits assumed): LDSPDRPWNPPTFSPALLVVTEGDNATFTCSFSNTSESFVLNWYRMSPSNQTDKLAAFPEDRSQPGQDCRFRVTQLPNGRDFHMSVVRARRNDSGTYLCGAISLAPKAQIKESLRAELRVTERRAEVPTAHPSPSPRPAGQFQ
On the technique in general: ELISA stands for enzyme-linked immunosorbent assay.
For B1, the binding result is on record as “binds”. Same read-out and setting: for B2 the value was “binds”. Same read-out and setting: for B3 the value was “binds”.

The target in a further test is T1, human PD-1 on human T cells (human, UniProt Q15116 25-288).
T1 construct: whole, on cells; In the functional rows it is the PD-1 of the transduced human peripheral blood T cells; also called PD-1 T cells; human T cells modified to overexpress human PD-1
T1 sequence (Q15116 25-288): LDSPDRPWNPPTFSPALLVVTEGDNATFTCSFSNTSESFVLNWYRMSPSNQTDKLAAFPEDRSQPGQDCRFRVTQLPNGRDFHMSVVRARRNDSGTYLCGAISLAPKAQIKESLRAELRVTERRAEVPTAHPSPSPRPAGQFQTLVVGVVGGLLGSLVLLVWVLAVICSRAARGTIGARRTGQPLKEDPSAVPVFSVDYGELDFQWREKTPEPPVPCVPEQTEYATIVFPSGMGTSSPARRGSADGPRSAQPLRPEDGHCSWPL
Briefly: flow cytometry, 1 µg/ml antibody, human T cells overexpressing human PD-1, goat anti-human Ig FITC. An excerpt: Flow cytometry was used to detect bound antibody using a goat anti-human Ig FITC conjugated antibody. […] Data shown is representative of one experiment.
A general note: A flow cytometer gives signals particle by particle.
As to B4, the “percent of PD-1 human T cells bound” value stood at 78%. Still for that read-out and setting: the result for B5 reads 67%. Consider B6, for which the “percent of PD-1 human T cells bound” value turned out to be 51%.
